Earlier results in patent publication US20010007853A1, “METHOD FOR ADMINISTERING MONOMERIC INSULIN ANALOGS” (priority 1998, published 2001).

Conditions: calculated

Substance | Absorption values for proteins delivered through the lungs
glycosylated α1-antitrypsin | 48 h
parathyroid hormone (fragment 1-34) | fifteen
